Reference: patent publication US20100278752A1

Columns and labels:
Assay in all cases: cell-based or functional assay
[1] = target: Cathepsin B (Homo sapiens (Human)) (UniProt P07858)
[2] = target: Cathepsin H (Homo sapiens (Human)) (UniProt P09668)
[3] = target: Cathepsin X/Z/P (Homo sapiens (Human)) (UniProt Q9UBR2)
Cathepsin X/Z/P (Homo sapiens (Human)), sequence (Q9UBR2 62-303 limits assumed, form in doubt): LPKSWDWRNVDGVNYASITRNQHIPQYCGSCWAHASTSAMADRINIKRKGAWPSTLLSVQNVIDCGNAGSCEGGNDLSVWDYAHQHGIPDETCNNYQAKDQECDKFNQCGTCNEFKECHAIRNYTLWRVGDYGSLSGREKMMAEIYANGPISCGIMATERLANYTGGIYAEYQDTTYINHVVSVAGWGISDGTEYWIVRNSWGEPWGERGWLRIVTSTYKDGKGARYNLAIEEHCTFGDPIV

Sialostatin L, sequence (Q8MVB6 20-133, tags or fused parts left off): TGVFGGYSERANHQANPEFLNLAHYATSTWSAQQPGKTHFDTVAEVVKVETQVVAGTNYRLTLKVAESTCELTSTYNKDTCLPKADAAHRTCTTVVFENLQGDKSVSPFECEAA
Cathepsin H (Homo sapiens (Human)), sequence (P09668 116-335 limits assumed, form in doubt): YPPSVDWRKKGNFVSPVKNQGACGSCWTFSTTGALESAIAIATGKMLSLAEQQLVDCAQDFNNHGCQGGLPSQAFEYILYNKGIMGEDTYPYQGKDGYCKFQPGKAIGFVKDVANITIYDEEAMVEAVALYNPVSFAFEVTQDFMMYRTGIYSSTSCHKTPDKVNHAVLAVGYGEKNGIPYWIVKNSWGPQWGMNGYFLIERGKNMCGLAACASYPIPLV

Question: “Sialostatin L2 (from UniProt B7PKZ1 19-132)” was tested. Which IC50 (inhibitor concentration at which 50% inhibition of enzymatic activity is achieved) [1] did it give?
Answer: > 10 µM

Question: What about the IC50 (inhibitor concentration at which 50% inhibition of enzymatic activity is achieved) [2] of the same substance?
Answer: > 10 µM

Question: And the IC50 (inhibitor concentration at which 50% inhibition of enzymatic activity is achieved); 16 nM enzyme [3]?
Answer: > 10 µM

Question: With “Sialostatin L (from UniProt Q8MVB6 20-133)” as the substance, how does the IC50 (inhibitor concentration at which 50% inhibition of enzymatic activity is achieved) [1] read?
Answer: > 10 µM

Question: And the IC50 (inhibitor concentration at which 50% inhibition of enzymatic activity is achieved) [2]?
Answer: > 10 µM
